Assay results as given in US20250011363A1, “OPTIMIZED SHORTENED PEPTIDE THAT BINDS TO ACETYLCHOLINE RECEPTOR, AND USE THEREOF” (SKINMED CO., LTD., priority 2021, published 2025).

target: acetylcholine receptor; experiment: SPR, AchR immobilised on chip, peptide 10 uM

| Binding affinity (RU) | Binder |
| --- | --- |
| 19 | KMNIK [5mer-1119] |
| 28 | RMDAR [5mer-1118] |
| 23 | RHKDR [5mer-817] |
| 27 | KTEGR [5mer-812] |
| 24 | KYEKR [5mer-1123] |
| 32 | KMTMR [5mer-811] |
| 29 | RFKVK [5mer-1121] |
| 33 | RPPDR [5mer-1120] |
| 14 | RDEKK [5mer-825] |
| 11 | RITMR [5mer-814] |
| 27 | KEPEK [5mer-1115] |
| 27 | RKDHR [5mer-815] |
| 12 | RESDR [5mer-821] |
| 16 | RAKGK [5mer-822] |
| 11 | KFHKK [5mer-810] |
| 29 | RTTFK [5mer-1112] |

| Binding affinity (RU) | Binder |
| --- | --- |
| 13 | KIDMK [5mer-824] |
| 13 | RMHMK [5mer-1110] |
| 14 | RNTDR [5mer-1122] |
| 26 | RKPIK [5mer-816] |
| 19 | RHMER [5mer-1113] |
| 11 | RHKIR [5mer-1117] |
| 30 | KKPVK [5mer-1124] |
| 28 | RKTFR [5mer-1114] |
| 21 | RAHVR [5mer-813] |
| 24 | KECFR [5mer-1116] |
| 19 | RNTIK [5mer-819] |
| 12 | KHWHR [5mer-818] |
| 28 | RIMHK [5mer-820] |
| 26 | KECFK [5mer-823] |
| 12 | KAEHK [5mer-1111] |
